# Source: the supplement of paper PMC10724198
# ± gives the standard deviation of the averaged measurements.
# Test system: Saccharomyces cerevisiae
# Test: protein stability index of tFT-peptide fusion (C-terminal peptide) (PSI (0-1 scale)); higher = more stable (slower turnover)
# Conditions: temperature: 30 C
# Experimental: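 MPS profiling in S. cerevisiae of the yeast C-terminome library: the last 12 aa of each annotated ORF are fused to the C-terminus of a sfGFP-mCherry timer, after a GGGS linker. Cells are FACS-sorted into 8 mCherry/sfGFP bins and deep-sequenced. PSI runs from 0 (unstable) to 1 (stable); wild type and das1Δ backgrounds, two technical replicates each.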
# [1] = genetic background: das1 deletion
Sequence,protein stability index [1],protein stability index (genetic background: wild type)
RMVDKVEGSFSR [YDR109C C-terminal 12 aa],0.7218 ± 0.0071,0.701 ± 0.028
RPVLSEEQRKNC [YDR344C C-terminal 12 aa],0.668 ± 0.0083,0.6794 ± 0.0048
RQTKAFISKFMT [DBR1 C-terminal 12 aa],0.7208 ± 0.0027,0.682 ± 0.05
RRKKKLMDELNL [ISY1 C-terminal 12 aa],0.703 ± 0.04,0.669 ± 0.017
RRSFFSVFRSEK [AKL1 C-terminal 12 aa],0.68 ± 0.019,0.746 ± 0.049
RSHRKQPLKRKD [BRE5 C-terminal 12 aa],0.69 ± 0.025,0.645 ± 0.019
RTHAMLNDIQNI [BNR1 C-terminal 12 aa],0.72 ± 0.022,0.721 ± 0.091
RVKSLKVGRKSQ [PAL1 C-terminal 12 aa],0.688 ± 0.02,0.684 ± 0.0082
RVLNNLIVSHNK [MOT3 C-terminal 12 aa],0.7102 ± 0.003,0.735 ± 0.078
RVSLEKEAKQHG [ERV2 C-terminal 12 aa],0.715 ± 0.025,0.673 ± 0.0072
RWFKKKKETGGS [BUD2 C-terminal 12 aa],0.698 ± 0.0098,0.71919 ± 0.00068
RYRLEKVIGKRW [SPO20 C-terminal 12 aa],0.704 ± 0.03,0.676 ± 0.022
SAIYLLIFRSTR [YPR177C C-terminal 12 aa],0.56459 ± 0.00029,0.569 ± 0.018
SAMTSKVLSFFL [RRT7 C-terminal 12 aa],0.7094 ± 0.0069,0.696 ± 0.019
SCAKDILGEENF [BRE4 C-terminal 12 aa],0.687 ± 0.0079,0.661 ± 0.04
SDAVAEANDIDD [TOM20 C-terminal 12 aa],0.673 ± 0.051,0.72 ± 0.047
SDEGHAHEDCAK [LOG1 C-terminal 12 aa],0.679 ± 0.011,0.669 ± 0.015
SFSRIDCCLPDE [TDA5 C-terminal 12 aa],0.72 ± 0.013,0.707 ± 0.051
SGDIVAVIETLA [DUR12 C-terminal 12 aa],0.51 ± 0.033,0.571 ± 0.049
SGFQFPFFGEEK [MRPL7 C-terminal 12 aa],0.717 ± 0.014,0.695 ± 0.037
SGSRVVRKLFEL [FUS2 C-terminal 12 aa],0.6964 ± 0.0031,0.7 ± 0.016

Sequence,protein stability index [1],protein stability index (genetic background: wild type)
SGSVYIGSVFLI [YGR121W-A C-terminal 12 aa],0.692 ± 0.029,0.6421 ± 0.0012
SGWSAKIPVSMI [YCR045W-A C-terminal 12 aa],0.704 ± 0.014,0.698 ± 0.0077
SGYDYFDVSVSG [YAT1 C-terminal 12 aa],0.71 ± 0.022,0.712 ± 0.015
SHKGFFQKLGCC [YCK1 C-terminal 12 aa],0.692 ± 0.0098,0.677 ± 0.01
SIDKWFFISGSV [IPP1 C-terminal 12 aa],0.726 ± 0.013,0.709 ± 0.0086
SIHIDDFENENN [YGL036W C-terminal 12 aa],0.7059 ± 0.0061,0.675 ± 0.023
SINGVNLELIKD [MIX14 C-terminal 12 aa],0.691 ± 0.041,0.635 ± 0.016
SKFTGRKRRHRF [BUD23 C-terminal 12 aa],0.67693 ± 0.00035,0.711 ± 0.05
SLDKMAQQLGVE [YKR005C C-terminal 12 aa],0.698 ± 0.016,0.677 ± 0.036
SLEAVSKMDKLA [AAT1 C-terminal 12 aa],0.723 ± 0.012,0.679 ± 0.014
SLQFIGEETSSL [YDL026W C-terminal 12 aa],0.708 ± 0.01,0.684 ± 0.012
SLSLRNHNSSQL [CLN1 C-terminal 12 aa],0.708 ± 0.024,0.701 ± 0.017
SNKLKGNPNQVF [MTG1 C-terminal 12 aa],0.721 ± 0.0079,0.75045 ± 0.00033
SNRILALGYILL [ATG32 C-terminal 12 aa],0.669 ± 0.0077,0.658 ± 0.0079
SNSLPKLKFHSM [OCA6 C-terminal 12 aa],0.725 ± 0.044,0.681 ± 0.011
SPKEEKRFKFKL [YGR127W C-terminal 12 aa],0.739 ± 0.046,0.801 ± 0.047
SPPEEESQHGDV [SHB17 C-terminal 12 aa],0.696 ± 0.022,0.75 ± 0.032
SQQNNNGNQNRY [RNQ1 C-terminal 12 aa],0.7168 ± 0.002,0.6682 ± 0.0039
SRSSIKNIVKPK [MRX15 C-terminal 12 aa],0.689 ± 0.048,0.75 ± 0.052
SSAASSQVPAST [PTK1 C-terminal 12 aa],0.694 ± 0.025,0.6743 ± 0.0022
SSDRSAAEKRNT [TYR1 C-terminal 12 aa],0.699 ± 0.029,0.673 ± 0.039

Sequence,protein stability index [1],protein stability index (genetic background: wild type)
SSEEGYYIAGSI [IRC23 C-terminal 12 aa],0.8201 ± 0.0072,0.81 ± 0.01
SSGCRRLMVGYN [ERC1 C-terminal 12 aa],0.6979 ± 0.0017,0.684 ± 0.0074
SSKKNNKFRRIR [CST9 C-terminal 12 aa],0.685 ± 0.019,0.714 ± 0.032
SSVKKKLYPKSK [RIM11 C-terminal 12 aa],0.704 ± 0.015,0.693 ± 0.073
STDETPDNENKQ [SGT2 C-terminal 12 aa],0.6998 ± 0.0031,0.67 ± 0.0077
STDQLPELSFEV [TVP38 C-terminal 12 aa],0.699 ± 0.013,0.722 ± 0.0051
STFTLNLEDVSK [ECM12 C-terminal 12 aa],0.711 ± 0.0086,0.634 ± 0.016
STSCDVIQSRNA [MET22 C-terminal 12 aa],0.71 ± 0.03,0.692 ± 0.0075
SVLSGSAEFVFY [NCA3 C-terminal 12 aa],0.7188 ± 0.0024,0.7148 ± 0.0061
SVLVCFLLRRAS [YJR087W C-terminal 12 aa],0.506 ± 0.02,0.342 ± 0.0095
SVLYAIDFSAAF [EMA35 C-terminal 12 aa],0.717 ± 0.012,0.703 ± 0.02
SVPKPSQARFSV [UTR1 C-terminal 12 aa],0.684 ± 0.025,0.703 ± 0.025
SYKDTKRWMFKK [PSF3 C-terminal 12 aa],0.724 ± 0.057,0.715 ± 0.078
SYLKGYIGCKIS [YPR092W C-terminal 12 aa],0.745 ± 0.042,0.569 ± 0.033
TAFGISSCRDLA [YLR163W-A C-terminal 12 aa],0.707 ± 0.016,0.6829 ± 0.00097
TARPFPAPNIAA [YLR349W C-terminal 12 aa],0.728 ± 0.029,0.67 ± 0.016
TASQLLEVQSKS [YGL039W C-terminal 12 aa],0.68 ± 0.023,0.6694 ± 0.006
TDCGLETEEIDI [RAD14 C-terminal 12 aa],0.663 ± 0.025,0.6823 ± 0.0022
TDDNNIQTILLK [YIG1 C-terminal 12 aa],0.679 ± 0.012,0.704 ± 0.044
